Test results from paper PMC6576074, “NF‐YB1‐YC12‐bHLH144 complex directly activates Wx to regulate grain quality in rice (Oryza sativa L.)”.
Values belong to the molecule of their own block, whether it stands above or below them.

Key:
LGF2‐pBT = assay: two-hybrid; bacterial two-hybrid (BacterioMatch II) in E. coli XL1‐Blue MRF′; NF‐YB1‐pTRG and NF‐YCs‐pBT; growth on M9/+Cm/+Ter/+3‐AT/+Strep/‐HIS against M9/+Cm/+Ter; intensity = ratio (%) of colony numbers
[1] = molecular target: HIS‐NF‐YB1 (rice (Oryza sativa L.)) (UniProt Q6Z348)
HIS-NF-YB1 = molecular target: T1, HIS-NF-YB1 (Oryza sativa L. (rice; cultivar not …, UniProt Q6Z348 1-186); assay: EMSA; EMSA: Beyotime EMSA/Gel-shift binding buffer (composition and pH not given), 10 uL, 2 nmol biotin probe, 5 nmol protein, 20 min preincubation + 20 min at 25 C; details: protein: recombinant; tags: N-terminal His (pET28a); label: biotin; blunt
T1 sequence: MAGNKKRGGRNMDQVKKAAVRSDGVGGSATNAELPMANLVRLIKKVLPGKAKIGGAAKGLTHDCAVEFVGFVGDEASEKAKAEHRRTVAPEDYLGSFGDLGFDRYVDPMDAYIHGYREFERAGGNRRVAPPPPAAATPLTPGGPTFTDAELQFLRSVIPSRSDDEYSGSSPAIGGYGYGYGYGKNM

[2] = molecular target: GST‐NF‐YC12 (rice (Oryza sativa L.))
[3] = molecular target: NF‐YC12‐pBT (rice (Oryza sativa L.)); assay: two-hybrid; bacterial two-hybrid (BacterioMatch II) in E. coli XL1‐Blue MRF′; NF‐YB1‐pTRG and NF‐YCs‐pBT; growth on M9/+Cm/+Ter/+3‐AT/+Strep/‐HIS against M9/+Cm/+Ter; intensity = ratio (%) of colony numbers

interaction intensity (ratio of colony numbers on selective and non-selective medium) (LGF2‐pBT): 33.8%
Molecule: Gal11‐pTRG

half-life of HIS‐NF‐YB1 in a cell-free degradation assay with GST‐NF‐YC12 and HIS‐bHLH144‐FLAG added (heterotrimer); around 15 min for HIS‐NF‐YB1 alone [1]: 40 min
Molecule: HIS‐bHLH144‐FLAG (natural protein)

B1: Wx promoter probe 3 (dsDNA)
DNA 1: CGTAATTCCAAGTTCTTTTTTTTTTGTCAGCACGTACAAGCAGCCGCTAGCCTCGCCCTG
DNA 2: CAGGGCGAGGCTAGCGGCTGCTTGTACGTGCTGACAAAAAAAAAAGAACTTGGAATTACG
binding result (HIS-NF-YB1): no binding

B2: Wx promoter probe 4 (dsDNA)
DNA 1: CAACGTGCCAACGTACGCACGCTAACGTGAGTCATGTAGCGTAATTCCAAGTTCTTTTTT
DNA 2: AAAAAAGAACTTGGAATTACGCTACATGACTCACGTTAGCGTGCGTACGTTGGCACGTTG
binding result (HIS-NF-YB1): no binding

B3: Wx promoter probe 5 (dsDNA)
DNA 1: AGATCATATCGTCTCCAGACTCAAGTGCACGTTGATCGTTCGCTCACTGCTTCATCGATC
DNA 2: GATCGATGAAGCAGTGAGCGAACGATCAACGTGCACTTGAGTCTGGAGACGATATGATCT
binding result (HIS-NF-YB1): no binding

B4: Wx promoter probe 2 (dsDNA)
DNA 1: CAGGCACTCAGCTCGCTGCTGGTCCCGCACGTCGCCACACGATCGACGTACGCACGCGAG
DNA 2: CTCGCGTGCGTACGTCGATCGTGTGGCGACGTGCGGGACCAGCAGCGAGCTGAGTGCCTG
binding result (HIS-NF-YB1): no binding

half-life of HIS‐NF‐YB1 in a cell-free degradation assay (total protein extract of 10 DAG rice seedlings) with GST‐NF‐YC12 added; around 15 min for HIS‐NF‐YB1 alone [2]: 30 min
B5: HIS‐NF‐YB1 (natural protein)
chain: T1 sequence

interaction intensity (ratio of colony numbers on selective and non-selective medium) [3]: 63.7%
B6: NF‐YB1‐pTRG (natural protein)
chain: T1 sequence
